In publication PMC314469, “Protein Interaction Networks by Proteome Peptide Scanning” (PLoS Biology, 2004):

T1: Abp1 SH3 (ABP1_YEAST), P15891
T1 chain: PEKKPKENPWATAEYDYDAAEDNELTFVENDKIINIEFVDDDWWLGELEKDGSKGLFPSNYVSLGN


Molecular target: T1, Abp1 SH3 (ABP1_YEAST), P15891
Assay: SPOT array

Row | Binder | normalised SPOT signal, Boehringer light units (BLU); mean over the file's lines of this peptide
1 | KPEYFPFPIYDKP [YBR086C 485-497] | 96.4
2 | KQQQEQQNKAPEKP [YGL105W 191-204] | 97.5
3 | KPTPPPKPSHLKP [YNL020C 608-620] | 133000
4 | KRRTSLFPWLHKP [YDR389W 506-518] | 122
5 | KRKRSKGEVNPSKP [YPR137W 9-22] | 110
6 | KNYDVIVPNVWRP [YML115C 378-390] | 15.7
7 | KQKNIYVISTPKRP [YLR398C 492-505] | 98.7
8 | KRLLMKGYIPPYKP [YKL126W 608-621] | 169
9 | KMIMKLIPKDVKP [YJL131C 312-324] | 1480
10 | KLKELQTITVPGKP [YER124C 120-133] | 131
11 | KPGWVVYPPPPKP [YML035C 221-233] | 154
12 | KPLININPYTRKP [YLR357W 223-235] | 1140
13 | KPVAPTSTDAPAKP [YOL027C 66-79] | 45.8
14 | KNDGSSSFVKPRRP [YNL215W 286-299] | 202
15 | KRESLNQPSTTKP [YHR084W 174-186] | 134
16 | KRAKEYIANLPMRP [YGR040W 256-269] | 22
17 | KLQGSFNPEYIKP [YML072C 1243-1255] | 108
18 | KNSDMMIPLDVKP [YOL081W 3046-3058] | 89
19 | KPFNPTLPEGIRP [YJL050W 736-748] | 87.3
20 | KMQRYFRPIIVRP [YLR290C 188-200] | 541
21 | KLYYVLYSSLPSKP [YGR216C 582-595] | 0.4
22 | KMISNRRPVPRRP [YPR091C 656-668] | 6230
23 | KLKITRNPNPSKP [YHR208W 27-39] | 245
